Source: article PMC3416671, “Neuronal RING finger protein 11 (RNF11) regulates canonical NF-κB signaling” (Journal of Neuroinflammation, 2012)

T1: endogenous RNF11 (murine primary cortical neurons) (mouse (endogenous in primary cortical …, UniProt Q9QYK7 1-154))
T1 construct: RING finger protein 11 (RNF11), endogenous in primary cortical neurons of C57BL/6 mice; also called RING finger protein 11; source: endogenous, murine primary cortical neuron lysate
T1 sequence (looked up): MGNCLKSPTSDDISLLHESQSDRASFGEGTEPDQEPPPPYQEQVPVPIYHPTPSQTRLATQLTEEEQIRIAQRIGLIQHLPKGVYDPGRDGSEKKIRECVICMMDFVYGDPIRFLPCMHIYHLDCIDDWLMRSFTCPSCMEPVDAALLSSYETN

B1: endogenous Itch (murine primary cortical neurons) (natural protein)
chain: not shown
notes: E3 ligase Itch (also known as AIP4), endogenous in primary cortical neurons of C57BL/6 mice; also called AIP4; source: endogenous, murine primary cortical neuron lysate
B2: endogenous A20 (murine primary cortical neurons) (natural protein, UniProt Q60769 1-775, looked up)
chain: MAEQLLPQALYLSNMRKAVKIRERTPEDIFKPTNGIIYHFKTMHRYTLEMFRTCQFCPQFREIIHKALIDRSVQASLESQKKLNWCREVRKLVALKTNGDGNCLMHAACQYMWGVQDTDLVLRKALCSTLKETDTRNFKFRWQLESLKSQEFVETGLCYDTRNWNDEWDNLVKMASADTPAARSGLQYNSLEEIHIFVLSNILRRPIIVISDKMLRSLESGSNFAPLKVGGIYLPLHWPAQECYRYPIVLGYDSQHFVPLVTLKDSGPELRAVPLVNRDRGRFEDLKVHFLTDPENEMKEKLLKEYLIVMEIPVQGWDHGTTHLINAAKLDEANLPKEINLVDDYFELVQHEYKKWQENSDQARRAAHAQNPLEPSTPQLSLMDIKCETPNCPFFMSVNTQPLCHECSERRQKNQSKLPKLNSKLGPEGLPGVGLGSSNWSPEETAGGPHSAPPTAPSLFLFSETTAMKCRSPGCPFTLNVQHNGFCERCHARQINASHTADPGKCQACLQDVTRTFNGICSTCFKRTTAEPSSSLTSSIPASCHQRSKSDPSQLIQSLTPHSCHRTGNVSPSGCLSQAARTPGDRAGTSKCRKAGCMYFGTPENKGFCTLCFIEYRENKQSVTASEKAGSPAPRFQNNVPCLGRECGTLGSTMFEGYCQKCFIEAQNQRFHEARRTEEQLRSSQHRDMPRTTQVASRLKCARASCKNILACRSEELCMECQHLSQRVGSVAHRGEPTPEEPPKQRCRAPACDHFGNAKCNGYCNECYQFKQMYG
notes: A20 (TNF-α-induced protein 3, TNFAIP3), endogenous in primary cortical neurons of C57BL/6 mice; also called TNFAIP3; source: endogenous, murine primary cortical neuron lysate

Target: T1, endogenous RNF11 (murine primary …)
Test: co-IP; lysates of murine primary cortical neurons stimulated with 10 ng/ml TNF-α for 0 or 30 minutes; IP with RNF11 antibody; control IP with antibody omitted; immunoblot with anti-A20 and Itch; densitometry normalised to input, 0 minutes set at 100%
Details: partners not purified

Row | Binder | Itch immunoreactivity in RNF11 immunoprecipitates after 30 minutes of TNF-α, relative to 0 minutes (100%) [%] | A20 immunoreactivity in RNF11 immunoprecipitates after 30 minutes of TNF-α, relative to 0 minutes (100%) [%]
1 | B1 | 166 | –
2 | B2 | – | 129
